We go through five substances from the supplement of paper PMC5998384.

In data set [1] the test system is HeLa Kyoto. Nature of the data set: thermal stability score vs G1/S (z-score of summed log2 fold changes over temperatures); higher = more thermally stable than in G1/S.
For data set [2], the system named is HeLa Kyoto. Nature of the data set: solubility change mitosis vs G1/S (difference of NP-40 vs SDS log2 ratios) (log2 ratio difference); higher = more soluble in mitosis.
In data set [3] the test system is HeLa Kyoto. Nature of the data set: solubility in G1/S (NP-40 vs SDS abundance) (log2 ratio); higher = more soluble. The conditions noted are these: cell cycle stage: G1/S.
Data set [4] concerns HeLa Kyoto. Nature of the data set: melting temperature (median over replicates), in situ; higher = more thermally stable.
The mark [5] stands for this setting: cell cycle stage: early G1 (4.5 h after nocodazole release).
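Throughout, for melting temperature (median over replicates), in situ: HeLa Kyoto cells synchronized by double thymidine or nocodazole block, proteins quantified by TMT10plex mass spectrometry, three independent biological replicates.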
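Throughout, for solubility change mitosis vs G1/S (difference of NP-40 vs SDS log2 ratios): synchronized HeLa Kyoto cells (double thymidine block for G1/S, nocodazole release for mitosis), protein amounts in NP-40 versus SDS lysates quantified by mass spectrometry, three biological replicates.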
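Throughout, for solubility in G1/S (NP-40 vs SDS abundance): HeLa Kyoto cells arrested at G1/S by double thymidine block, proteins quantified by TMT10plex mass spectrometry in mild NP-40 versus SDS extracts, three biological replicates.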
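Throughout, for thermal stability score vs G1/S (z-score of summed log2 fold changes over temperatures): synchronized HeLa Kyoto cells, proteins quantified by TMT10plex mass spectrometry, three biological replicates, mitosis taken 0.5 h after nocodazole release, G1/S directly after double thymidine block.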

As to FLNA, the thermal stability score is -0.0595 with HeLa Kyoto [1] (setting [5]) and 2.86 with HeLa Kyoto [1] (cell cycle stage: mitosis). Besides, the “solubility change mitosis (log2)” value with HeLa Kyoto [2] is -0.105. Besides, the “solubility in G1/S (log2)” value with HeLa Kyoto [3] was -0.000309. For the same substance, the melting temperature in the data set with HeLa Kyoto [4] (cell cycle stage: G1/S) was found to be 50.2 °C; in the data set on HeLa Kyoto [4] (cell cycle stage: mitosis), 50.3 °C.
For the substance “MAEAPPVSGTFKFNTDAAEFIPQEKKNSGLNCGTQRRLDSNRIGRRNYSSPPPCHLSRQVPYDEISAVHQHSYHPSGSKPKSQQTSFQSSPCNKSPKSHGLQNQPWQKLRNEKHHIRVKKAQSLAEQTSDTAGLESSTRSESGTDLREHSPSESEKEVVGADPRGAKPKKATQFVYSYGRGPKVKGKLKCEWSNRTTPKPEDAGPESTKPVGVFHPDSSEASSRKGVLDGYGARRNEQRRYPQKRPPWEVEGARPRPGRNPPKQEGHRHTNAGHRNNMGPIPKDDLNERPAKSTCDSENLAVINKSSRRVDQEKCTVRRQDPQVVSPFSRGKQNHVLKNVETHTGSLIEQLTTEKYECMVCCELVRVTAPVWSCQSCYHVFHLNCIKKWARSPASQADGQSGWRCPACQNVSAHVPNTYTCFCGKVKNPEWSRNEIPHSCGEVCRKKQPGQDCPHSCNLLCHPGPCPPCPAFMTKTCECGRTRHTVRCGQAVSVHCSNPCENILNCGQHQCAELCHGGQCQPCQIILNQVCYCGSTSRDVLCGTDVGKSDGFGDFSCLKICGKDLKCGNHTCSQVCHPQPCQQCPRLPQLVRCCPCGQTPLSQLLELGSSSRKTCMDPVPSCGKVCGKPLPCGSLDFIHTCEKLCHEGDCGPCSRTSVISCRCSFRTKELPCTSLKSEDATFMCDKRCNKKRLCGRHKCNEICCVDKEHKCPLICGRKLRCGLHRCEEPCHRGNCQTCWQASFDELTCHCGASVIYPPVPCGTRPPECTQTCARVHECDHPVYHSCHSEEKCPPCTFLTQKWCMGKHEFRSNIPCHLVDISCGLPCSATLPCGMHKCQRLCHKGECLVDEPCKQPCTTPRADCGHPCMAPCHTSSPCPVTACKAKVELQCECGRRKEMVICSEASSTYQRIAAISMASKITDMQLGGSVEISKLITKKEVHQARLECDEECSALERKKRLAEAFHISEDSDPFNIRSSGSKFSDSLKEDARKDLKFVSDVEKEMETLVEAVNKGKNSKKSHSFPPMNRDHRRIIHDLAQVYGLESVSYDSEPKRNVVVTAIRGKSVCPPTTLTGVLEREMQARPPPPIPHHRHQSDKNPGSSNLQKITKEPIIDYFDVQD [NFX1]”, the thermal stability score in the data set with HeLa Kyoto [1] (setting [5]) is 1.02; with HeLa Kyoto [1] (cell cycle stage: mitosis), 0.0215. Further, the “solubility change mitosis (log2)” value in the data set with HeLa Kyoto [2] amounted to 0.35. The “solubility in G1/S (log2)” value in the data set with HeLa Kyoto [3] was -0.786. Further, the values for the melting temperature with HeLa Kyoto [4] (cell cycle stage: G1/S) and in the data set on HeLa Kyoto [4] (cell cycle stage: mitosis) were 50.5 °C and 50.3 °C, respectively.
Consider “MALPFRKDLEKYKDLDEDELLGNLSETELKQLETVLDDLDPENALLPAGFRQKNQTSKSTTGPFDREHLLSYLEKEALEHKDREDYVPYTGEKKGKIFIPKQKPVQTFTEEKVSLDPELEEALTSASDTELCDLAAILGMHNLITNTKFCNIMGSSNGVDQEHFSNVVKGEKILPVFDEPPNPTNVEESLKRTKENDAHLVEVNLNNIKNIPIPTLKDFAKALETNTHVKCFSLAATRSNDPVATAFAEMLKVNKTLKSLNVESNFITGVGILALIDALRDNETLAELKIDNQRQQLGTAVELEMAKMLEENTNILKFGYQFTQQGPRTRAANAITKNNDLVRKRRVEGDHQ [TMOD3]”, for which the thermal stability score in the data set with HeLa Kyoto [1] (setting [5]) is -0.553; in the data set with HeLa Kyoto [1] (cell cycle stage: mitosis), 0.573. Further, the “solubility change mitosis (log2)” value in the data set on HeLa Kyoto [2] was 0.296. In the data set with HeLa Kyoto [3], the “solubility in G1/S (log2)” value is 0.293. The melting temperature amounted to 49.4 °C in the data set on HeLa Kyoto [4] (cell cycle stage: G1/S) and 50.5 °C in the data set on HeLa Kyoto [4] (cell cycle stage: mitosis).
With “MFVQEEKIFAGKVLRLHICASDGAEWLEEATEDTSVEKLKERCLKHCAHGSLEDPKSITHHKLIHAASERVLSDARTILEENIQDQDVLLLIKKRAPSPLPKMADVSAEEKKKQDQKAPDKEAILRATANLPSYNMDRAAVQTNMRDFQTELRKILVSLIEVAQKLLALNPDAVELFKKANAMLDEDEDERVDEAALRQLTEMGFPENRATKALQLNHMSVPQAMEWLIEHAEDPTIDTPLPGQAPPEAEGATAAASEAAAGASATDEEARDELTEIFKKIRRKREFRADARAVISLMEMGFDEKEVIDALRVNNNQQNAACEWLLGDRKPSPEELDKGIDPDSPLFQAILDNPVVQLGLTNPKTLLAFEDMLENPLNSTQWMNDPETGPVMLQISRIFQTLNRT [UBAC1]”, the thermal stability score in the data set with HeLa Kyoto [1] (setting [5]) was 1.16; in the data set with HeLa Kyoto [1] (cell cycle stage: mitosis), 0.844. Besides, the “solubility change mitosis (log2)” value in the data set with HeLa Kyoto [2] was -0.0991. Besides, the “solubility in G1/S (log2)” value in the data set on HeLa Kyoto [3] stood at 0.313. Also, the melting temperature with HeLa Kyoto [4] (cell cycle stage: G1/S) was found to be 50.9 °C; with HeLa Kyoto [4] (cell cycle stage: mitosis), 50.6 °C.
“MTTPALLPLSGRRIPPLNLGPPSFPHHRATLRLSEKFILLLILSAFITLCFGAFFFLPDSSKHKRFDLGLEDVLIPHVDAGKGAKNPGVFLIHGPDEHRHREEEERLRNKIRADHEKALEEAKEKLRKSREEIRAEIQTEKNKVVQEMKIKENKPLPPVPIPNLVGIRGGDPEDNDIREKREKIKEMMKHAWDNYRTYGWGHNELRPIARKGHSPNIFGSSQMGATIVDALDTLYIMGLHDEFLDGQRWIEDNLDFSVNSEVSVFEVNIRFIGGLLAAYYLSGEEIFKIKAVQLAEKLLPAFNTPTGIPWAMVNLKSGVGRNWGWASAGSSILAEFGTLHMEFIHLSYLTGDLTYYKKVMHIRKLLQKMDRPNGLYPNYLNPRTGRWGQYHTSVGGLGDSFYEYLLKAWLMSDKTDHEARKMYDDAIEAIEKHLIKKSRGGLTFIGEWKNGHLEKKMGHLACFAGGMFALGADGSRADKAGHYLELGAEIARTCHESYDRTALKLGPESFKFDGAVEAVAVRQAEKYYILRPEVIETYWYLWRFTHDPRYRQWGWEAALAIEKYCRVNGGFSGVKDVYSSTPTHDDVQQSFFLAETLKYLYLLFSGDDLLPLDHWVFNTEAHPLPVLHLANTTLSGNPAVR [MAN1A2]”: the results for the thermal stability score in the data set on HeLa Kyoto [1] (setting [5]) and in the data set on HeLa Kyoto [1] (cell cycle stage: mitosis) were -0.726 and -1.7, respectively. Besides, the “solubility change mitosis (log2)” value in the data set on HeLa Kyoto [2] was -0.0976. Moreover, the “solubility in G1/S (log2)” value in the data set with HeLa Kyoto [3] was -0.0642. In addition, the melting temperature was 54.1 °C with HeLa Kyoto [4] (cell cycle stage: G1/S) and 54.3 °C with HeLa Kyoto [4] (cell cycle stage: mitosis).
